Where a chain is given by its changes, count along the chain named. Where two headings read alike, the source gives them in different places.

For assay [1], the target named is T1, SARS-COV-2 RBD (SARS-COV-2, UniProt P0DTC2 319-539).
T1 construct: also called WT RBD
The assay can be described thus: ELISA, RBD coated on plate. (In general: ELISA stands for enzyme-linked immunosorbent assay.)

Assay [2] has as its target T2, SARS-COV-2 RBD (SARS-COV-2, UniProt P0DTC2 319-539).
T2 construct: also called WT RBD
The assay can be described thus: ELISA, RBD coated on plate. The source holds these as a separate data set.

B1: C1055 (antibody, V domains shown)
VH: QVQLVESGGGVVQPGRSLRLSCAASGFTFSTYGMNWVRQAPGKGLEWVALILYDGSDKYYADSVKSRFTISRDNSRNTLYLQMTSLRAEDTAVYYCAKALSSTYYYDASGPDAFDIWGQGTMVTVSS
VL: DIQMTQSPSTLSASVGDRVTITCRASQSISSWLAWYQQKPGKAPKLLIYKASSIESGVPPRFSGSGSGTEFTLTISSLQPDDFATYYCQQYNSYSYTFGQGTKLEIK
As usually defined, the EC50 is the concentration that produces a half-maximal response. High values mean weaker potency, low ones greater potency. Molecule B1 registered an EC50 with SARS-COV-2 RBD [1] of 2.71 ng/mL.

B2: C1052 (antibody, V domains shown)
VH: QVQLVQSGAEVKKPGASVKVSCKVSGYTLSELSMHWVRQAPGEGLEWLGGFDPEDGETINAQKFQGRVTMTEDRSTDTAYMELSSLRSEDTAVYYCATRGRYCSSGNCYYHHWGQGTLVTVSS
VL: DIQMTQSPSTLSASVGDRVIITCRASQNIHNWLAWYQQKPGKAPKLLIYKASSLESGVPSRFSGSGSGTEFTLTISSLQPDDFATYFCQQYHSYSWTFGQGTKVEIK
In the case of B2, a half-maximal effect with SARS-COV-2 RBD [1] (EC50) was put at 2.64 ng/mL.

B3: C1046 (antibody, V domains shown)
VH: EVQLVQSGAEVKKPGESLKISCKGSGYSFTSYWIGWVRQMPGKGLEWMGIIYPGDSDTRYSPSFQGQVTISADKSISTAYLQWSSLKASDTAMYYCARMVTSGTYYYDNSGYSSSGPFDYWGQGTLVTVSS
VL: DIQLTQSPSSLSASVGDRVTITCRASQGISSALAWYQQKPGKAPKLLIYDASSLESGVPSRFSGSGSGTDFTLTISSLQPEDFATYYCQQFNNFGPGTKVDIK
The molecule B3 came in with an EC50 with SARS-COV-2 RBD [2] of 3.8 ng/mL.

B4: C1053 (antibody, V domains shown)
VH: EVQLLESGGGLVQPGGSLRLSCAASGFTFSSYAMNWVRQAPGKGLEWVSAISGSGGGTYYADSVKGRFTISRDNSKNTLYLQMDSLRAEDTAVYYCAKDVPIEQQLVPTFDYWGQGALVTVSS
VL: DIQMTQSPSSLSASVGDRVTITCRASQSISRYLNWYQQKPGKAPKLLIYGASSLQSGVPSRFSGSGSGTDFTLTISSLQPEDFATYWCQQSYSTLSITFGQGTRLEIK
In turn, B4 came in with an EC50 with SARS-COV-2 RBD [1] of 4.13 ng/mL.

B5: C1054 (antibody, V domains shown)
VH: EVQLLESGGGLVQPGGSLRLSCVVSGFTFSSYAMNWVRQAPGKGLEWVSVIGGSGDGRYYADSVKGRFTISRDNSKNTLYLQMNSLRGDDTAVYYCARDVPVEQQLVPTFDYWGQGTLVTVSS
VL: B4 VL with G50A, D70E, W87Y
B5 yielded an EC50 in the assay with SARS-COV-2 RBD [1] of 1.64 ng/mL.

B6: C1061 (antibody, V domains shown)
VH: EVQLVESGGGLVQPGGSLRLSCAASGFTFSRYDMHWVRQGTGKGLEWVSAIGTSGDTYYPDSVKGRFTISRENAKNSLYLQMNSLRAGDTAVYYCARGGLQTTTWLFDYWGQGTLVTVSS
VL: B4 VL with G50A, S67A, T85I, W87Y, T94N, L95P, S96P
Take B6: the EC50 in the assay with SARS-COV-2 RBD [1] is 2.26 ng/mL.

B7: C1062 (antibody, V domains shown)
VH: B6 VH with R31N, G40T, S54A, D61G, I69M, Y109N
VL: B4 VL with S28T, G50A, W87Y, S93T, T94M, L95P, S96P
B7 came in with an EC50 with SARS-COV-2 RBD [1] of 2.61 ng/mL.

B8: C1047 (antibody, V domains shown)
VH: EVQLVQSGAEVKKPGESLKISCKGSGYSFISYWIVWVRQMPGKGLEWIGIIYPGDSDTIYSPSFQGQVTLSADKSISTAYLQWSSLKASDTAIYYCAKMVTSGTSYYETRGYASSGPFDNWGQGTLVTVSS
VL: DIQLTQSPSSLSASVGDRVTITCRASQGISSALAWYQQKPGKAPKLLIYDASSLESGVPSRFSGSGSGTDFTLTISSLQPEDFATYYCQQSDNFGPGTKVDI
As to B8, the midpoint of the response with SARS-COV-2 RBD [2], the EC50, lay at 2.46 ng/mL.

B9: C1047 (antibody, V domains shown)
VH: B8 VH
VL: B8 VL
On to B9, for which the EC50 in the assay with SARS-COV-2 RBD [1] was found to be 2.46 ng/mL.

B10: C1049 (antibody, V domains shown)
VH: EVQLVQSGAEVKKPGESLKISCKSSGYSFISHWIGWVRQMPGKGLEWMGIIWPGDSDTRYSPSFQGQVTISVDKSITTVYLQWSSLKAADTAMYYCARRGSSWEVDYWGQGTLVTVSS
VL: not shown
In the case of B10, the EC50 with SARS-COV-2 RBD [2] came to 2.81 ng/mL.

B11: C1049 (antibody, V domains shown)
VH: B10 VH
VL: not shown
In the assay with SARS-COV-2 RBD [1], B11 returned an EC50 of 2.81 ng/mL.

B12: C1050 (antibody, V domains shown)
VH: EVQLVESGGGLVQPGRSLRLSCAASGFTFDDYGMHWVRQAPGKGLEWVSGISWNGDSIGYADSVKGRFTISRDNAKTSLYLQMNRLRAEDTALYYCAKAASRSTRIGGAFDIWGQGTMVTVSS
VL: QSALTQPASVSGSPGQSITISCTGTSSDVGGYNLVSWYQQHPGKAPKLMIYEGSKRPSGVSNRFSGSKSGNTASLTISGLQAEDEADYYCCSYAYSFTNVFGTGTKVTV
Consider B12, for which the midpoint of the response with SARS-COV-2 RBD [1], the EC50, lay at 2.78 ng/mL.

B13: C1051 (antibody, V domains shown)
VH: B12 VH with A23V, M34L, G55S, T69A, K76R
VL: B12 VL with H41Y, G53D, N62H, Y95F
B13 yielded an EC50 with SARS-COV-2 RBD [1] of 1.4 ng/mL.

B14: C1057 (antibody, V domains shown)
VH: QVQLVQSGAEVKKPGSSVKVSCKASGGTFTTYIISWVRQAPGQGLEWMGGISPMLGTANYAQKFQGGVTITADESTTTAYMEMSGLRSEDTAVYYCARAHMYCSDGSCYRQSGYFDSWGQGTLVTVSS
VL: QSALTQPRSVSGSPGQSVTITCTGTSSNVGGYKYVSWFQQHPGKAPKFLIYDVSERSSGVPDRFSGSKSGNTASLTISGLQAEDEADYYCCSYAGKYTVVFGGGTRLTV
Molecule B14 registered an EC50 with SARS-COV-2 RBD [1] of 2.12 ng/mL.

B15: C1048 (antibody, V domains shown)
VH: EVQLVQSGAEVKKPGESLKISCKVSGYSFISHWIGWVRQMPGKGLEWMGIIYPGDSDTRYSPSFQGQVTISADKSISTAYLQWSSLKASDTAMYYCARRGASWELDYWGQGTLVTV
VL: QSVLTQPPSASGTPGQRVTISCSGSSSNIGSNPVSWYQQLPGPAPQLLIYGNDQRPSGVPDRFSGSKSGTSASLAISGLQSEDEADYYCAAWDDSLNGYVFGTGTKVTVL
In the case of B15, it took 2.41 ng/mL to reach a half-maximal effect in the assay with SARS-COV-2 RBD [2] (EC50).

B16: C1048 (antibody, V domains shown)
VH: B15 VH
VL: B15 VL
B16 came in with an EC50 with SARS-COV-2 RBD [1] of 2.41 ng/mL.

B17: C1067 (antibody, V domains shown)
VH: QVQLVQSGAEVKKPGASVKVSCKASRDTFTTHYIHWVRQAPGQGLEWMGIINPSGGSISYAQKFQGRVTMTRDTSTSTVYMELSSLRSEDTAVYYCARGGIVPHLSNWFDPWGQGTLVTVSS
VL: EIVLTQSPGTLSLSPGERATLSCRASQSVSSSYLAWYQQKPGQAPRLLIYGASSRATGIPDRFTGSGSGTDFTLTISRLEPEDFAVYYCQQYGRSSGFTFGPGTKVDIK
B17 showed an EC50 with SARS-COV-2 RBD [1] of 2.93 ng/mL.

B18: C1065 (antibody, V domains shown)
VH: EVQLVESGGGLIQPGGSLRLSCAASGFTVSRNYMSWVRQAPGKGLEWVSVIYSGGSTFYADSVKGRFTISRDNSKNTLYLQMNSLRAEDTAVYYCARGLPTGEGWNYFDYWGQGTLVTVSS
VL: QSALTQPASVSGSPGQSITISCTGTSSDIGGYHYVSWYQQHPGKAPKLMIYDVSNRPSGISNRFSGSKSGNTASLTISGLQAEDEADYYCSSYASSSVIFGGGTKLTVL
In turn, B18 displayed an EC50 in the assay with SARS-COV-2 RBD [1] of 3.52 ng/mL.

B19: C1058 (antibody, V domains shown)
VH: EVQLVESGGGLVQPGGSLRLSCAASGIIVSSNYMNWVRQVPGKGLEWVSVLYSGGSTFYADSVRGRFTISRDNSKNTLFLQMNSLRPEDTAVYYCARDFREGAFDIWGQGTMVTV
VL: DIQLTQSPSFLSASVGDRVTITCRASQGISSYLAWYQQKPGKAPNLLIYAASTLQSGVPSRFSGSGSGTDFTLTISSLQPEDFATYYCQQLNSYSPLFGQGTRLEIK
In the case of B19, the EC50 with SARS-COV-2 RBD [1] is 2.13 ng/mL.

B20: C1059 (antibody, V domains shown)
VH: EVQLVESGGGLVQPGGSLRLSCAASGVTVSYNYMHWVRQAPGKGLEWVSVFFPGGSIFYADSVKGRFSISRDNSHNTLYLQMNNLRPEDTAVYYCARDFREGAIDLWGQGTMVTVSS
VL: B19 VL with G16E, N45K, A50G, D70E, F83S, S95P
In the assay with SARS-COV-2 RBD [1], B20 showed an EC50 of 1.69 ng/mL. This EC50 and that of the molecule before are within 1.5-fold of each other.

B21: C1068 (antibody, V domains shown)
VH: QVQLVESGGGVVQPGRSLRLSCAASGFTFSTFAMHWVRQAPGKGLEWVAVTSYDGSNKYYADSVKGRFTISRDNSKNTLYLQMNSLRAEDTAVYYCARGLLWFGESEYFQHWGQGTLVTVSS
VL: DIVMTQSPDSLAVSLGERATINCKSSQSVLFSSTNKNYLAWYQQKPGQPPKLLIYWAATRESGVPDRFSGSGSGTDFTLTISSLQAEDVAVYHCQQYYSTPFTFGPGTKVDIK
Molecule B21 returned an EC50 with SARS-COV-2 RBD [1] of 2.48 ng/mL.

B22: C1063 (antibody, V domains shown)
VH: EVQLVQSGAEVKKPGESLKISCKGYGNSFNNYWIAWVRQMPVKGLEWMGVINPGDSDTRYSPSFQGQVTISVDKSISTAYLQWSSLKASDTAMYYCARTWSPAAVAFFDSWGQGTLVTVS
VL: NFMLTQPHSVSESPGKTVTISCTRSSDSIGSNYVQWYQQRPGSSPTIVIYEDSQRPSGVPHRFSGSFDSSSNSASLTISGLKTEDEADYYCQSWDSGNLVFGGGTKLTVL
Turning to B22, the midpoint of the response in the assay with SARS-COV-2 RBD [1], the EC50, lay at 3.04 ng/mL.

B23: C1060 (antibody, V domains shown)
VH: EVQLVESGGDLVQPGGSLRLSCAASEIIVSRNYMNWVRQAPGKGLEWVSIIYSGGSTFYGDSVKGRFTISRDSSKNTLYLQMHGLRVEDTAIYYCARSYGDYYIDYWGQGTLVTVSS
VL: DIQMTQSPSSVSASVGDRVTITCRTSQSISTSLAWYQQKPGKAPKLLIYAASSLQRGVPSRFSGTGSGTDFTLTISSLQPEDFATYYCQQSSSSPPLFTFGPGTKVDIK
On to B23, for which the EC50 in the assay with SARS-COV-2 RBD [1] came to 2.67 ng/mL.

B24: C1066 (antibody, V domains shown)
VH: EVQLVESGGGLVQPGRSLRLSCAASGFMFDDYAMHWVRQAPGKGLEWVSGINWSSADIGYVDSVKGRFTISRDNAKNSLYLQMNSLRTEDTAFYYCAKGWFGELLGGSDSWGQGTLVTVSS
VL: QLVLTQSSSASASLGSSVKLTCTLNSGHSSYIIAWHQQQPGKAPRYLMKLEGSGSYNKGSGVPDRFSGSSSGADRYLTISNLQFEDEADYYCATWDSNTQVFGGGTKLTVL
Take B24: a half-maximal effect with SARS-COV-2 RBD [1] (EC50) was put at 3.01 ng/mL.

The values are drawn from US20240218057A1 (ROCKEFELLER UNIVERSITY, published 2024).
